The target in assay [1] is T1, FcgRIIIa F (human, UniProt P08637 17-208).
T1 construct: extracellular domain; polymorphic site made after J. Clin. Invest; also called FcγRIIIa F
The assay is described as follows: SPR (Biacore), antibody captured, FcgR as analyte. The method, then: (§1) Specifically, H240-Kn120 (SEQ ID NO: 99) resulting from introduction of S239M into H240-Kn067 and H240-Kn126 (SEQ ID NO: 100) resulting from introduction of Y235Q into H240-Kn120 were prepared according to the method described in Reference Example 1. […] Those described above were assayed for the binding to each FcgR according to the method described in Reference Example 8.
(§2) Analysis of interaction between objective antibody and the FcγR was carried out using Biacore T100 (GE Healthcare), Biacore T200, Biacore A100, and Biacore 4000. HBS-EP+ (GE Healthcare) was used as the running buffer, and the measurement temperature was set to 25° C. Chips produced by immobilizing the antigen peptide by the amine coupling method to a Series S sensor Chip CM5 (GE Healthcare), chips produced by allowing preliminarily biotinylated antigen peptides to interact with and immobilize onto a Series S Sensor Chip SA (certified) (GE Healthcare), chips produced by immobilizing Protein L (ACTIGEN, BioVision) to Series S Sencor Chip CM5 (GE Healthcare), or chips produced by immobilizing Protein A/G (Thermo Scientific) to Series S Sencor Chip CM5 (GE Healthcare) were used. Antibodies of interest were captured onto these chips, and allowed to interact to each FcγR diluted with running buffer. To regenerate and repeatedly use the chip, the antibodies captured onto the chip were washed off by reacting 10 mM glycine-HCl, pH 1.5.
On the technique in general: In SPR one partner is held on a chip, and binding of the other changes the refractive index at the surface.

Assay [2] has as its target T2, FcgRIIa H (human, UniProt P12318 34-217).
T2 construct: extracellular domain; also called FcγRIIa H; FcγRIIa type H
T2 sequence (looked up): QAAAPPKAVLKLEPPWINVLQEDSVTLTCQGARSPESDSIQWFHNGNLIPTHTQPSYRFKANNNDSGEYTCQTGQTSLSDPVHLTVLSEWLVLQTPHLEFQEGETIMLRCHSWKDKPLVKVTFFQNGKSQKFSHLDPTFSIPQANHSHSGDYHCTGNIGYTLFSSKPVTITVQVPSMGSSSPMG
The assay is described as follows: SPR (Biacore), antibody captured, FcgR as analyte. The method, then: as §1, §2

The target of assay [3] is T3, FcgRIIIa V (human, UniProt P08637 17-208).
T3 construct: extracellular domain; polymorphic site made after J. Clin. Invest; also called FcγRIIIa V
The assay is described as follows: SPR (Biacore), antibody captured, FcgR as analyte. The method, then:
as §1, §2

Assay [4] deals with T4, FcgRIIb (human, UniProt P31994 43-217).
T4 construct: extracellular domain; also called FcγRIIb; CD32B
T4 sequence (looked up): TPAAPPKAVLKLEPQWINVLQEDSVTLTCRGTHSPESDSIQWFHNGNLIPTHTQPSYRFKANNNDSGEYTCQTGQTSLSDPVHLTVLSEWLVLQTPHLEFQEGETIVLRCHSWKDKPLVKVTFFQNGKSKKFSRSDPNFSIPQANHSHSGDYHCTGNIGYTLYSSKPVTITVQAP
Briefly: SPR (Biacore), antibody captured, FcgR as analyte. The method, then: as §1, §2

A further assay concerns the target T5, FcgRIa (human, UniProt P12314 16-292).
T5 construct: extracellular domain; also called FcγRIa; FcγRI
Briefly: SPR (Biacore), antibody captured, FcgR as analyte. The method, then:
as §1, §2

Assay [5] deals with T6, FcgRIIa R (human, UniProt P12318 34-217).
T6 construct: extracellular domain; also called FcγRIIa R; FcγRIIa type R
T6 sequence (looked up): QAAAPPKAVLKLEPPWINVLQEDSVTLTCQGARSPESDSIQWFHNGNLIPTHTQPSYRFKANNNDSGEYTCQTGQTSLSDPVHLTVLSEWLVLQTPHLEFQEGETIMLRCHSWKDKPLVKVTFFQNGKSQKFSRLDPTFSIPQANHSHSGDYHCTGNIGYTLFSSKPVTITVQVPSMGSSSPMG
Briefly: SPR (Biacore), antibody captured, FcgR as analyte. The method, then: as §1, §2

Assay [6] addresses T1, FcgRIIIa F. The assay is described as follows: SPR (Biacore), antibody captured, FcgR as analyte. As for the experimental part: (§3) Then, H240-Hl136 (SEQ ID NO: 97) resulting from introduction of L234Y/L235Y/G236W/H268D/S298A/A327D into H240-Hl033 and H240-Kn133 (SEQ ID NO: 98) resulting from introduction of D270E/K326D/A330K/K334E into H240-Kn033 were constructed according to the method described in Reference Example 1.
as §2, with “buffer.” for “buffer. To regenerate and repeatedly use the chip, the antibodies captured onto the chip were washed off by reacting 10 mM glycine-HCl, pH 1.5.”
The source holds these as a separate data set.

In assay [7] the target is T2, FcgRIIa H. Briefly: SPR (Biacore), antibody captured, FcgR as analyte. As for the experimental part: as §3
as §2, with “buffer.” for “buffer. To regenerate and repeatedly use the chip, the antibodies captured onto the chip were washed off by reacting 10 mM glycine-HCl, pH 1.5.”
This is another data set of the same source.

For assay [8], the target named is T3, FcgRIIIa V. Briefly: SPR (Biacore), antibody captured, FcgR as analyte. The method, then: as §3
as §2, with “buffer.” for “buffer. To regenerate and repeatedly use the chip, the antibodies captured onto the chip were washed off by reacting 10 mM glycine-HCl, pH 1.5.”
The source holds these as a separate data set.

Assay [9] deals with T6, FcgRIIa R. Briefly: SPR (Biacore), antibody captured, FcgR as analyte. As for the experimental part: as §3
as §2, with “buffer.” for “buffer. To regenerate and repeatedly use the chip, the antibodies captured onto the chip were washed off by reacting 10 mM glycine-HCl, pH 1.5.”
This is another data set of the same source.

In assay [10] the target is T7, FcgRIIb (human, UniProt P31994 43-217).
T7 construct: extracellular domain; also called FcγRIIb; 2b; not shown: His tag attached to the C terminus
T7 sequence (looked up): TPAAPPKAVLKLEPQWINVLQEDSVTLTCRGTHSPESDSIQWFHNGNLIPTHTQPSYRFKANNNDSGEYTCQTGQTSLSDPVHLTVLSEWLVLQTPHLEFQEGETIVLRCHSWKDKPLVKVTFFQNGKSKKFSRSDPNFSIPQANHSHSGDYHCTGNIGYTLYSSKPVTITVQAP
The assay is described as follows: SPR (Biacore); KD of H240-Kn033/H240-Hl033/L73-k0 divided by KD of the variant. The method, then: (§4) Binding of the produced variants to FcgRIa, FcgRIIaR, FcgRIIaH, FcgRIIb, FcgRIIIaF, and FcgRIIIaV was measured according to the method of Reference Example 8.
as §2

In another assay the target is T8, FcgRIIaR (human, UniProt P12318 34-217).
T8 construct: extracellular domain; also called FcγRIIa R; FcgRIIa type R; not shown: His tag attached to the C terminus
T8 sequence (looked up): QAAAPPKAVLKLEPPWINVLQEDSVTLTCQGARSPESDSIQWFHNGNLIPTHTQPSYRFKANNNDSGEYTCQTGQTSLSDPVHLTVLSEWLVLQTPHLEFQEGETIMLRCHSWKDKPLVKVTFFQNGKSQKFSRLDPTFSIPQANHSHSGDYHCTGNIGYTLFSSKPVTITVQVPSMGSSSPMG
The assay is described as above. The method, then: as §4, §2

Another assay deals with T9, FcgRIIaH (human, UniProt P12318 34-217).
T9 construct: extracellular domain; also called FcγRIIa H; FcgRIIa type H; not shown: His tag attached to the C terminus
T9 sequence (looked up): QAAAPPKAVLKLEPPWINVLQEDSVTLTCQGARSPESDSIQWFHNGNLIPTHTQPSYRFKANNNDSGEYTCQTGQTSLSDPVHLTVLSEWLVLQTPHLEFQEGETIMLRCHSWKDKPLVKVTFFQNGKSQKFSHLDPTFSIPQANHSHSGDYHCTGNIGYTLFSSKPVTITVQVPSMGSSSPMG
The description is as above. As for the experimental part: as §4, §2

Another assay addresses T10, FcgRIIIaV (human, UniProt P08637 17-208).
T10 construct: extracellular domain; also called FcγRIIIa V; 3aV; not shown: His tag attached to the C terminus
The description is as above. As for the experimental part:
as §4, §2

In the next assay the target is T11, FcgRIIIaF (human, UniProt P08637 17-208).
T11 construct: extracellular domain; also called FcγRIIIa F; 3aF; not shown: His tag attached to the C terminus
The description is as above. As for the experimental part:
as §4, §2

Where two headings read alike, the source gives them in different places.

T3 sequence (P08637 17-208 F176V limits assumed): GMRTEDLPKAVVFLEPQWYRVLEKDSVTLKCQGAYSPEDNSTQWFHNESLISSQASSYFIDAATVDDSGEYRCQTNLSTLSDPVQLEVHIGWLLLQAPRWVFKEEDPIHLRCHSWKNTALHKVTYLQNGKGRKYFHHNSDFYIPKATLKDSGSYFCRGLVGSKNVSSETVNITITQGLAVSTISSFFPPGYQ
T10 sequence (P08637 17-208 F176V limits assumed): as above
T1 sequence (P08637 17-208): as the sequence (P08637 17-208 F176V limits assumed) above, with V160F counted along it
T11 sequence (P08637 17-208): as the sequence (P08637 17-208 F176V limits assumed) above, with V160F counted along it
T5 sequence (P12314 16-292): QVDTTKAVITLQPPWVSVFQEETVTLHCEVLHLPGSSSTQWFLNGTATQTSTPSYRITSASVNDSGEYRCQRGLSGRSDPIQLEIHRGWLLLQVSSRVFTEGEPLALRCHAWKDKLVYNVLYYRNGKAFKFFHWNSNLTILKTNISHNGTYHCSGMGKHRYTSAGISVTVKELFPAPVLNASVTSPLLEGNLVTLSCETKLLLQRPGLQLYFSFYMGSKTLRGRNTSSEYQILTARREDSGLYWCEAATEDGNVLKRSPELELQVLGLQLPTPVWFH

B1: H240-Kn067/H240-Hl068/L73-k0 (antibody, human IgG1, kappa)
heavy 1: QDQLVQSGAEVKKPGASVKVSCKASGFNIKDTYIQWVRQAPGQGLEWMGRIDPLRKQTKYREKFEGRVTITADTSTNTAYMELSSLRSEDTAVYYCVRSGREFDYWGQGTLVTVSSASTKGPSVFPLAPSSKSTSGGTAALGCLVKDYFPEPVTVSWNSGALTSGVHTFPAVLQSSGLYSLSSVVTVPSSSLGTQTYICNVNHKPSNTKVDKKVEPKSCDKTHTCPPCPAPEYYWGPSVFLFPPKPKDTLMISRTPEVTCVVVDVSDEDPEVKFNWYVDGVEVHNAKTKPREEQYNATYRVVSVLTVLHQDWLNGKEYKCKVSNKDLPAPIEKTISKAKGQPREPQVCTLPPSRDELTKNQVSLWCLVKGFYPSDIAVEWESNGQPENNYKTTPPVLDSDGSFFLYSKLTVDKSRWQQGNVFSCSVMHEALHNHYTQKSLSLSP
heavy 2: QDQLVQSGAEVKKPGASVKVSCKASGFNIKDTYIQWVRQAPGQGLEWMGRIDPLRKQTKYREKFEGRVTITADTSTNTAYMELSSLRSEDTAVYYCVRSGREFDYWGQGTLVTVSSASTKGPSVFPLAPSSKSTSGGTAALGCLVKDYFPEPVTVSWNSGALTSGVHTFPAVLQSSGLYSLSSVVTVPSSSLGTQTYICNVNHKPSNTKVDKKVEPKSCDKTHTCPPCPAPELLGGPSVFLFPPKPKDTLMISRTPEVTCVVVDVSHEEPEVKFNWYVDGVEVHNAKTKPREEQYNSTYRVVSVLTVLHQDWLNGKEYKCKVSNDALPKPIEETISKAKGQPREPQVYTLPPSRCELTKNQVSLSCAVKGFYPSDIAVEWESNGQPENNYKTTPPVLDSDGSFFLVSKLTVDKSRWQQGNVFSCSVMHEALHNHYTQKSLSLSP
light: DIQMTQSPSSLSASVGDRVTITCRASQDIHKYIAWYQQKPGQAPRLLIQYTSTLQPGVPSRFSGSGSGTDYTFTISSLQPEDIATYYCLQYEQLRTFGGGTKVEIKRTVAAPSVFIFPPSDEQLKSGTASVVCLLNNFYPREAKVQWKVDNALQSGNSQESVTEQDSKDSTYSLSSTLTLSKADYEKHKVYACEVTHQGLSSPVTKSFNRGEC
notes: Heterodimerized: L234Y/L235Y/G236W/H268D/S298A/A327D in the knob chain, D270E/K326D/A330K/K334E in the hole chain
As a reminder, the Kd is the concentration at which binding is half-saturated. Higher therefore signals a looser complex. For B1, the Kd in the assay with FcgRIIIa F [1] worked out at 7.1 nM; with FcgRIIa H [2], 94 nM; in the assay with FcgRIIIa V [3], 1.6 nM; in the assay with FcgRIIb [4] it was 370 nM; in the assay with FcgRIa it was 0.26 nM; in the assay with FcgRIIa R [5], 49 nM. For the same molecule, the Kd with FcgRIIIa F [6] came out at 7.1 nM; with FcgRIIa H [7], 94 nM; with FcgRIIIa V [8], 1.6 nM; with FcgRIIa R [9], 49 nM.

B2: H240-Kn033/H240-Hl033/L73-k0 (antibody, human IgG1, kappa)
heavy 1: not shown
heavy 2: not shown
light: DIQMTQSPSSLSASVGDRVTITCRASQDIHKYIAWYQQKPGQAPRLLIQYTSTLQPGVPSRFSGSGSGTDYTFTISSLQPEDIATYYCLQYEQLRTFGGGTKVEIKRTVAAPSVFIFPPSDEQLKSGTASVVCLLNNFYPREAKVQWKVDNALQSGNSQESVTEQDSKDSTYSLSSTLTLSKADYEKHKVYACEVTHQGLSSPVTKSFNRGEC
notes: Anti-epiregulin IgG1 with only knobs-into-holes alterations
With B2, the “fold 2b” value with FcgRIIb [10] came out at 1 fold. In the assay with FcgRIIaR, the “fold 2aR” value is 1 fold. In addition, the “fold 2aH” value in the assay with FcgRIIaH was found to be 1 fold. The “fold 3aV” value with FcgRIIIaV worked out at 1 fold. Besides, the “fold 3aF” value with FcgRIIIaF turned out to be 1 fold.

B3: H240-afucosyl_G1d/L73-k0 (antibody, human IgG1, kappa)
heavy: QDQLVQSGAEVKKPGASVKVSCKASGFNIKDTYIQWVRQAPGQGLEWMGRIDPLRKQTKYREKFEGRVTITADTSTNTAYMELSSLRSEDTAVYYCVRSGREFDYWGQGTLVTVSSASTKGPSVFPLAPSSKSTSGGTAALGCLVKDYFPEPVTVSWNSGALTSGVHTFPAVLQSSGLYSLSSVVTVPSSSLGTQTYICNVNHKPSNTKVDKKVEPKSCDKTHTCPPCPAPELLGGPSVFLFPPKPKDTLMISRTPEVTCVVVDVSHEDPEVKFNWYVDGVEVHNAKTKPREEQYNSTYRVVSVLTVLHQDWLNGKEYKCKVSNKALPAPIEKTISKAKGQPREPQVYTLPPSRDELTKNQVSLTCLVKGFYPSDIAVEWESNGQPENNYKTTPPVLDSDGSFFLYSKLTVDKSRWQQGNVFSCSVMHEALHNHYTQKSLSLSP
light: DIQMTQSPSSLSASVGDRVTITCRASQDIHKYIAWYQQKPGQAPRLLIQYTSTLQPGVPSRFSGSGSGTDYTFTISSLQPEDIATYYCLQYEQLRTFGGGTKVEIKRTVAAPSVFIFPPSDEQLKSGTASVVCLLNNFYPREAKVQWKVDNALQSGNSQESVTEQDSKDSTYSLSSTLTLSKADYEKHKVYACEVTHQGLSSPVTKSFNRGEC
modifications: afucosylated: fucose removed from the sugar chain of H240-G1d
notes: also called afucosylated antibody
For the molecule B3, in the assay with FcgRIIb [10], the “fold 2b” value is 1.3 fold. The “fold 2aR” value in the assay with FcgRIIaR is 1.5 fold. Also, the “fold 2aH” value in the assay with FcgRIIaH worked out at 0.7 fold. The “fold 3aV” value in the assay with FcgRIIIaV is 7 fold. In addition, the “fold 3aF” value in the assay with FcgRIIIaF came out at 3.7 fold.

The values are drawn from patent publication US20150344570A1 (published 2015).
